# Measurements: article PMC2674214 (PLoS ONE, 2009)
# How the values were obtained:
# [1] = biological target: T1, hemagglutinin (HA) of A/Anhui/1/2005 (H5N1) virus (Influenza A virus A/Anhui/1/2005 (H5N1), UniProt Q1WDM0); test: ELISA; conditions: one partner purified
# [2] = biological target: rHA of clade 0 H5N1 virus A/HongKong/156/97 (Influenza A virus A/Hong Kong/156/1997 …, UniProt O56140); test: ELISA
# rHA2 of AH/1/05 virus = biological target: T2, rHA2 of AH/1/05 virus (Influenza A virus A/Anhui/1/2005 (H5N1), UniProt Q1WDM0, strain); test: immunostaining of cells or tissue; conditions: one partner purified
# T2 construct: source: SF-9 cells infected with recombinant baculovirus (pAcUW51), on fixed cells
# rHA1 of AH/1/05 virus = biological target: T3, rHA1 of AH/1/05 virus (Influenza A virus A/Anhui/1/2005 (H5N1), UniProt Q1WDM0, strain); test: immunostaining of cells or tissue; conditions: one partner purified
# T3 construct: source: SF-9 cells infected with recombinant baculovirus (pAcUW51), on fixed cells
# [3] = biological target: T1, hemagglutinin (HA) of A/Anhui/1/2005 …; test: immunostaining of cells or tissue; conditions: one partner purified
# [4] = biological target: T4, rHA of AH/1/05 virus (full length HA) (Influenza A virus A/Anhui/1/2005 (H5N1), UniProt Q1WDM0); test: immunostaining of cells or tissue; conditions: one partner purified
# T4 construct: source: SF-9 cells infected with recombinant baculovirus (pAcUW51), on fixed cells
Binder,binding result [1],binding result [2],binding result (rHA2 of AH/1/05 virus),binding result (rHA1 of AH/1/05 virus),binding result [3],binding result [4]
"AVFluFab03 (Fab, V domains shown, also called Fab clone representing 25 of the 43 selected Fab clones; source: phagemid vector pComb3H, crude Fab antibody preparations) VH: LESGGGLVQPGGSLRVSCTNSGFTFSDYAMSWVRQAPGKGLEWVSAISGNGGSSTYYADSVKGRFTISRDNSKNTMYLQMNSLRAEDTAVYYCVRDDSYDGGGQYGLHNWFDSWGQGTLVTV VL: ELTQPPSVSGAPGQRVTISCTGSSSNIGAGYDVHWYQQLPGTAPKLLIYGNSNRPSGVPDRFSGSKSGTSASLAITGLQAEDEADYYCQSYDSSLVVFGGGTKLTVL",binds,,,,,
"AVFluIgG03 (antibody, V domains shown, also called rhAb AVFluIgG03; AVFluIg03; source: SF9 cells, purified on a Protein A column) VH: LESGGGLVQPGGSLRVSCTNSGFTFSDYAMSWVRQAPGKGLEWVSAISGNGGSSTYYADSVKGRFTISRDNSKNTMYLQMNSLRAEDTAVYYCVRDDSYDGGGQYGLHNWFDSWGQGTLVTV VL: ELTQPPSVSGAPGQRVTISCTGSSSNIGAGYDVHWYQQLPGTAPKLLIYGNSNRPSGVPDRFSGSKSGTSASLAITGLQAEDEADYYCQSYDSSLVVFGGGTKLTVL",,no binding,no binding,binds,binds,binds
